# Entries after “also recorded” stand apart in the source; their conditions may differ.
# T1: SEPT7 (Mus musculus, UniProt O55131)
# T1 sequence (O55131 1-436): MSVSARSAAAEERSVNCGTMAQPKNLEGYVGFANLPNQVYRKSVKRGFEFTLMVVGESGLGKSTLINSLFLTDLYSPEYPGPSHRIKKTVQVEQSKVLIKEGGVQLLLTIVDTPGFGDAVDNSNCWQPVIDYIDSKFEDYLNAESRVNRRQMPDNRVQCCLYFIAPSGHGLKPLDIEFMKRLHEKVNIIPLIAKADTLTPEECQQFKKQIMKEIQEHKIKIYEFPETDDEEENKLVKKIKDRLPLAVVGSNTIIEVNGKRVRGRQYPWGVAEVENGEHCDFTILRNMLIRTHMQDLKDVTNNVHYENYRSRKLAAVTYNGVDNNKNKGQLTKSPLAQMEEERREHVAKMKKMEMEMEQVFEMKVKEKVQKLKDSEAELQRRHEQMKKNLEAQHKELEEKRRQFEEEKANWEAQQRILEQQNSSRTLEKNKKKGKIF
# B1: RBD: RGS-binding domain of KIF20A, amino acids 625-818 of mouse KIF20A sequence; competitive inhibitor for RGS3-KIF20A interaction (protein)
# chain: LKILKESLTTFYQEQIQERDEKIEELETLLQEAKQQPAAQQSGGLSLLRRSQRLAASASTQQFQEVKAELEQCKTELSSTTAELHKYQQVLKPPPPAKPFTIDVDKKLEEGQKNIRLLRTELQKLGQSLQSAERACCHSTGAGKLRQALTNCDDILIKQNQTLAELQNNMVLVKLDLQKKAACIAEQYHTVLKL
# modifications: left off: small tags and cut ends
# What was measured:
# [1] = tested on: Daoy human MB cells; test: Growth assay of Daoy cells; format: cell-based; conditions: parental Daoy cells with or without doxycycline
# Description: Generation of Daoy cell lines with stably integrated Tet-on inducible shRNA expression system: Daoy cells were infected with lentivirus of Tet-on inducible human KIF20A shRNA-726 and GFP-Luciferase prepared from Tet-pLKO-hushKIF20A726 plasmid and Hiv7CMVGFP-IRES-Luciferase plasmid, respectively. The transduced Daoy cells were selected for stable single clones with Puromycin (1 μg/ml, Sigma-Aldrich) and GFP fluorescence signal in DMEM (Invitrogen) with 10% fetal bovine serum. Single clones were picked up by glass cloning cylinders (Sigma-Aldrich) in 10 cm plate.
# Growth Assay of tumor cells: Mouse MB cell lines, or Daoy clones stably integrated with Tet-on inducible human KIF20A shRNA-726, or Wild Type Daoy cells, were seeded into multiple wells of 24 well plates (2×10^4 or 1×10^4 cells per well). Cells in quadruplicate were then dissociated and counted using a hemocytometer at consecutive days after initial plating.
# [2] = tested on: human KIF20A transcript; test: shRNA screening by dual luciferase reporter assay; format: cell-based; conditions: transfected HEK293 cells, shRNA in pNUT vector, cDNA target in psi-CHECK, 48 hours
# Description: FIGS. 10a-10c show generation of human KIF20A shRNAs and stable Daoy cell lines. […] Candidate shRNAs in pNUT vector were first screened with a cDNA target cloned in psi-CHECK vector in transfected HEK293 cells, using a dual luciferase reporter assay and their cDNA target in psi-CHECK Vector (Promega). Six candidate shKIF20As were tested with this assay. […] Data are mean±S.D. **P<0.01, ***P<0.001 (two-way ANOVA).
# DNA Constructs, Lentivirus Production: Lentiviral transfer plasmids used in this study include: Hiv7CMV-Cre-myc-2A-GFP (Addgene #117148), Hiv7CMV-GFP, Hiv7CMV-GFP-IRES-Luciferase, as well as Tet-on inducible shRNA plasmids Tet-pLKO-hushKIF20A726 or Tet-pLKO-hushKIF20A181-Puro (shRNA sequences were cloned into pLKO-Tet-On plasmid, Addgene #21915 at Agel/EcoRI sites). […]
# shRNA design and screening: Potential shRNA sequences were selected using web-based design tool (rnaidesigner.thermofisher.com/rnaiexpress/design.do). shRNAs were expressed under the control of a mouse U6 promoter in pNUTs vector which additionally contains a ubiquitin promoter-EGFP expression cassette. Candidate shRNAs in pNUTs and cDNA target in psi-CHECK were co-transfected into HEK293 cells in triplicates; 48 hours later, the firefly and Renilla Luciferase values were determined with Promega's Dual-Luciferase® Reporter Assay System (Promega, E1910). […]
# [3] = tested on: GISC017 cells; test: Cell cycle exit analysis (EdU/Ki67) in GISC017 cells; format: cell-based, human; conditions: lentiviral expression of RBD
# From the text: To further investigate the relevance of KIF20A in human brain tumors, inhibition of KIF20A in patient-derived GBM-initiating/stem cells (GISCs) was examined. As the ERKS axis functions in different types of brain tumor-initiating/stem cells, data obtained from study of GISCs would be applicable to other brain tumor cell types. Multiple lines of patient-derived GISCs were obtained from Dr. Christine Brown. These low passaged GISCs could be expanded in cultures and could engraft in NSG mice^43, 44. FIG. 11 summarizes the results of testing KIF20A in one GISC line (GISC017) by constitutive expression of a control scrambled shRNA or shKIF20A726 (shRNA targeting hKIF20A) in pNUT vector-based lentiviral expression system. […] In the above cell cycle exit analysis, co-staining of differentiation markers (e.g. βlll-tubulin, DCX, or NeuN) was performed, however, these markers were detected in EdU^+Ki67^− (cells having left the cell cycle) but also in some EdU^+Ki67^+ (cells staying in the cell cycle) cells, which might reflect a technical artefact observed with progenitor/stem cells in culture. […]
# [4] = biological target: T2, RGS3-KIF20A interaction (Mus musculus, UniProt Q9DC04); test: GST-RGS pulldown experiment; format: binding; conditions: expression of RBD, GST-RGS pull down
# T2 construct: mediated by the RGS domain of RGS3
# [5] = tested on: neural progenitor cells (NPCs); test: In utero electroporation over-expression in the mouse cortex; format: in vivo; conditions: expression plasmid delivered at E13.5 via IUE, brains collected at E15.5
# From the text: Expression plasmid of GFP, RBD (RGS-binding domain of mouse KIF20A), or RGS was delivered into the cortices at E13.5 via in utero electroporation (IUE). Brains were collected at E15.5 for analyses. Distribution of transfected cells (GFP+) across the radial domains were scored. […] VZ, ventricular zone; IZ, intermediate zone; CP, cortical plate. Green and blue asterisks indicate P<0.01 (Student's t-test) for CP and SVZ/VZ distributions, respectively.
# RGS3-KIF20A interaction is mediated by the RGS domain of RGS3 and the RGS-binding domain (RBD) of KIF20A which is located to amino acids 625-818 of mouse KIF20A sequence (FIG. 13a)^9. […] In this experiment, expression plasmid of GFP, RBD (RGS-binding domain of KIF20A), or RGS was delivered into the cortices at E13.5 via IUE. Brains were collected at E15.5 for analyses. Distribution of transfected cells (GFP+) across the radial domains were scored.
# [6] = biological target: T1, SEPT7; conditions: cited from earlier work
# T2 sequence (Q9DC04 841-966 limits assumed): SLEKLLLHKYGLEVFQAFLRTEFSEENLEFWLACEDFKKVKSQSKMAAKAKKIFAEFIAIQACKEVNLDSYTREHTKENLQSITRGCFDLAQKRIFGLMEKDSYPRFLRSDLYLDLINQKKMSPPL
molecule,measurement,setting,value
"C[C@H]1c2cccc(O)c2C(=O)C2=C(O)[C@]3(O)C(=O)C(C(N)=O)=C(O)[C@@H](N(C)C)[C@@H]3[C@@H](O)[C@@H]21 [doxycycline, reference compound]",growth of parental Daoy cells (cytotoxicity of doxycycline),[1],not affected
"5′-AGTATGGAGAAGGTGAAAG-TTCAAGAGA-CTTTCACCTTCTCCATACT-3′ (AGTATGGAGAAGGTGAAAGTTCAAGAGACTTTCACCTTCTCCATACT; expressed or natural sequence) [shKIF20A181, shRNA targeting human KIF20A transcript]",inhibition of expression of the human KIF20A transcript (luciferase assay),[2],significantly inhibit expression of the human KIF20A transcript
B1,cell cycle exit,[3],induce cell cycle exit; also recorded: caused cell cycle exit
same,inhibition of binding of GST-RGS and KIF20A,[4],inhibited binding between RGS3 and mouse KIF20A
same,inhibition of binding of GST-RGS and KIF20A,[4]; listed as Flag-RBD,inhibited binding of GST-RGS and KIF20A in a dose dependent manner
same,inhibition of binding of GST-RGS and KIF20A,[4]; listed as KIF20A625-818,block interaction between KIF20A and RGS3
same,neuronal differentiation of neural progenitor cells,[5],caused precocious neuronal differentiation of the affected NPCs; also recorded: caused neural progenitor cell differentiation and subsequent outward migration of newly born neurons into the IZ and CP regions
same,neuronal differentiation of neural progenitor cells,[5]; listed as KIF20A625-818,cause neuronal differentiation
same,interaction with SEPT7,[6],interacts with SEPT7

# — patent US20240240189A1, “CANCER TREATMENT BY TARGETING PROTEINS OR INTERACTIONS OF EPHRINB-RGS3-KIF20A-SEPT7 AXIS” (CITY OF HOPE, priority 2021, published 2024)
